Series [1] deals with 2xStrepII-ecHOP1-HORMA (ecHOP1 residues 1-274) (Ectocarpus siliculosus). The experiment in a line: ITC; 350 µM MBP-tagged CM titrated into 25 µM ecHOP1-HORMA in the cell; 50 mM HEPES pH 7.5, 150 mM NaCl, 1 mM EDTA; 25 °C; MicroCal PEAQ-ITC; triplicate.
The test system of series [2] is ecHOP1-wHTH (SUMO-wHTH) (Ectocarpus). Briefly: EMSA. The conditions noted are these: apparent Kd, Hill h = 1.7; 50 nM DNA; EMSA: 50 nM nucleic acid, protein 25 nM-2 uM, ~30 min at 4 C, 0.8% agarose in 0.2% TBE (so in the source) at 4 C, SYBR Gold; binding buffer, salt and pH not stated.

As to “His6-MBP-CM-R-A (ecRED1 closure motif A) (domain or fragment)”, the Kd in series [1] is 60.3 µM.
On the same count and under the same terms, with “MBP-CM-H1-A (ecHOP1 isoform 1 closure motif A, residues 567-600) (domain or fragment)” the figure was 7.2 µM.
Regarding 167 bp Widom DNA, the Kd in series [2] was 0.25 µM.
In series [1], “MBP-CM-H1-B (ecHOP1 isoform 1 closure motif B, residues 665-694) (domain or fragment)” had a Kd of 10.6 µM.

The values are drawn from publication PMC12678776.
